Results published in paper PMC12269619, “In silico improvement of affinity for highly protective anti-malarial antibodies” (iScience, 2025).
Ends that are not written are not given here.

Molecular target: T1, Biotinylated junctional peptide Pep21 (PfCSP peptide 21) (Plasmodium falciparum 3D7, UniProt Q7K740, also: biotinylated, position not given here)
T1 construct: Plasmodium falciparum circumsporozoite protein (PfCSP), junctional region, residues 101-115; source: synthetic peptide, bought: Genscript
T1 chain: NPDPNANPNVDPNAN
Test: BLI; Octet Red384, biotinylated Pep21 on streptavidin biosensors, Fab serially diluted from 1000 to 62.5 nM, 30°C, PBS + 1% BSA, association 60 s, dissociation 180 s, global fit 1:1 Langmuir
Conditions: both partners purified

B1: P3-43 Fab (m43.151 P100K_H) (Fab, V domains shown)
VH: QVHLVQSGAEVKKPGASVKVSCKASGYTFTSYAIHWVRQAPGQRLEWMGWIKGGNGNTRYSQKFQDRVTITRDTSASTAYMELSSLRSEDTAVYYCALLTVITKDDAFDIWGQGTMVTVSS
VL: not shown
notes: as the heavy chain of m5 (PDB 7LKG) with the stated change; own structure deposited here; as the light chain of m5; source: Fab produced from the antibody
Work on B1 yielded a Kd of 8.9 nM.
